Here are results for 32 sequences from the supplement of paper PMC9170038.

The test system of the data set is MS2 coat protein. Briefly: apparent KD of MS2 coat protein; designed switch direction (-1 OFF switch, 1 ON switch): -1; higher = weaker reporter binding. The essentials:
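Stalled E. coli RNA polymerase transcribed designed RNA switches on Illumina chips, which were then titrated with SNAP-549-labelled MS2 coat protein, doubling from 0.7 or 1.5 nM to 3 µM. Steps lasted from 0.8–1.5 h at the lowest concentration to 10–20 min at the highest. The apparent KD is each design's median over clusters of curve-fitted normalised fluorescence.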

The mark [1] stands for this setting: Eterna round: R95, input ligand: microRNA oligo, concentration not stated.
Where [2] appears, read: input ligand: microRNA oligo, concentration not stated.
[3] abbreviates: Eterna round: R95, input ligand: FMN 200 uM.
[4] abbreviates: Eterna round: R95, input ligand: none.

As to “CAGUACAGAGGAUAUACAUGAGGAUCACCCAUGUGUUUCAGGUACGAGAGUACCGAGUGUAGAAGGCUGUACUG [jl-ex3-4.28 salish99 mod] (Eterna round: R97, puzzle: Exclusion 3)”, the “apparent KD of MS2 coat protein” value (input ligand: FMN 200 uM) turned out to be 0.244 µM and the “apparent KD of MS2 coat protein” value (input ligand: none) stood at 0.0381 µM.

“UUAUUCAGAGGAUAUGCGCAUAGAUAAGACUUUUUUUUUUAACAUGAGGAUCACCCAUGUAGAAGGCUGUAAUU [Ex2 #55] (Eterna round: R97, puzzle: Exclusion 2)”: the “apparent KD of MS2 coat protein” value runs as follows: (input ligand: FMN 200 uM) 0.0181 µM; (input ligand: none) 0.021 µM.

Consider “UUUUUGUCAGGAUAUGAGUAGUAGAACAAUAGUACUACUACUCAGAAGGGACAUGAGGAUCACCCAUGUUCCUC [Fiskers Ex 4 Super stable 44 mod 18] (puzzle: Exclusion 4)”, for which the “apparent KD of MS2 coat protein” value under setting [1] came out at 0.0144 µM.

As for “CCGUAACAUGAGGAUCACCCAUGUUAGGAUAUGUAGCGCUGGGCAUCCUCAGCUGGUUAUAGAAGGGACGAGGG [Eternabot (L2) Solution 15] (Eterna round: R97, puzzle: Exclusion 1)”, the “apparent KD of MS2 coat protein” value by setting is: (input ligand: FMN 200 uM) 0.0737 µM; (input ligand: none) 0.111 µM.

In the case of “ACAUGAGGAUCACCCAUGUAAUGAAGGGUACUAUAUUAAACGUAGGAUAUCGAUGUAAGUUUGUACGAGAAGGACGAUUGCCUU [JR_ExcNG3_Sub052] (Eterna round: R96, puzzle: Exclusion NG 3)”, the “apparent KD of MS2 coat protein” value was determined as 0.0482 µM (input ligand: FMN 200 uM), 0.0395 µM under setting [2] and 0.0841 µM (input ligand: none).

For the sequence “AAAAGAAGUGUUAGGAUAUGUGGAAGCAGAAAGACACAGAAGGAACAUGAGGAUCACCCAUGUGACCAAAGAAC [Maenonis] (puzzle: Brourd's mod of Exclusion 4)”, the “apparent KD of MS2 coat protein” value runs as follows: under setting [3], 0.0271 µM; under setting [1], 0.0158 µM; under setting [4], 0.0153 µM.

With “GAUUAUGCGAGCUUUAGGGACAUGAGGAUCACCCAUGUUCGUCUUAUUGGUCUGGGUACACUAACAUACCUAAAUCU [JMF 22] (puzzle: Sensor v3, turn-off variant 1)”, the “apparent KD of MS2 coat protein” value came to 0.0334 µM under setting [3], 0.0479 µM under setting [1] and 0.0362 µM under setting [4].

Take “GAGUGACAUGAGGAUCACCCAUGUGAGGAUAUCGGACGGACCAAAUUAACAAUAAAUGCGAGAAGGCGCAUCGG [Exclusion 1 V16] (puzzle: Exclusion 1)”: the “apparent KD of MS2 coat protein” value came to 0.0467 µM under setting [3], 0.0433 µM under setting [1] and 0.0543 µM under setting [4].

Take “AGUACUAACACGAUAGUGUUAGUACUAUAAGCUUGUGUUACAUGAGGAUCACCCAUGUCCUCAUAAGCUCGUCUUAU [Mat - Sensor v3 - Turn-off var 2 - D78] (puzzle: Sensor v3, turn-off variant 2)”: the “apparent KD of MS2 coat protein” value runs as follows: under setting [3], 0.0956 µM; under setting [1], 0.118 µM; under setting [4], 0.101 µM.

For the sequence “GCAGUAUGAGUUAGGAUAUGAUGAUUUUUAUUAAAUCAGAAGGAACUUGAGGAUCACCCAAGUAAAGAAUUGGU [JR_BMEx4_Sub069] (Eterna round: R97, puzzle: Brourd's mod of Exclusion 4)”, the “apparent KD of MS2 coat protein” value runs as follows: (input ligand: FMN 200 uM) 0.0233 µM; (input ligand: none) 0.0204 µM.

Regarding “CUAUGUGCGAGAGGAUAUCGUGUACAAAGUACACGAGAAGGCUUCACAUGAGGAUCACCCAUGUACCGAGGUGAAACACCUUGA [Omei Exc(NG)1 Bv6] (Eterna round: R96, puzzle: Exclusion NG 1)”, the “apparent KD of MS2 coat protein” value turned out to be 0.744 µM (input ligand: FMN 200 uM), 0.261 µM under setting [2] and 0.51 µM (input ligand: none).

Regarding “AAGGAUAGAGGAUAUAUAUAGAUACAGAUUCAUGUAGAACUACAUGAGGAUCACCCAUGUAGAAGGCUAUCCUA [Fiskers Ex 2 - 10] (puzzle: Exclusion 2)”, the “apparent KD of MS2 coat protein” value under setting [1] turned out to be 0.0147 µM.

In the case of “ACGCCACAUGAGGAUCACCCAUGUGAGGAUAUGGCCUGUUUGGCGUGUGCUGGCUCUGUCAGAAGGCGCGUGGG [salish99_ex1_r4_039] (Eterna round: R97, puzzle: Exclusion 1)”, the “apparent KD of MS2 coat protein” value runs as follows: (input ligand: FMN 200 uM) 0.0454 µM; (input ligand: none) 0.0423 µM.

Consider “AUUUAUAAUGUAGGAUAUGGAUUCGAAACGUAUCCAGAAGGACAUGAGGAUCACCCAUGUACAUGAGGAUCACCCAAUUUAUUA [Fiskers ExNg1 - 10] (Eterna round: R96, puzzle: Exclusion NG 1)”, for which the “apparent KD of MS2 coat protein” value amounted to 0.098 µM (input ligand: FMN 200 uM), 0.0467 µM under setting [2] and 0.0593 µM (input ligand: none).

As to “GCCUCACUUGAGGAUCACCCAAGUCAGGAUAUUCACGGAACUAUGUAGCAGUUCGGCCGGAGAAGGGAUUCGGG [Areses] (Eterna round: R97, puzzle: Exclusion 1)”, the “apparent KD of MS2 coat protein” value reads like this: (input ligand: FMN 200 uM) 0.0884 µM; (input ligand: none) 0.035 µM.

As to “AUAUUAAUAGUAAGGAUAUGCGUAUAUAUAAUUAUGCAGAAGGUACAUGAGGAUCACCCAUGUAUUAAUGUGUA [LRO-BmodExc4-02-Oppy's Opus] (Eterna round: R97, puzzle: Brourd's mod of Exclusion 4)”, the “apparent KD of MS2 coat protein” value came to 0.0135 µM (input ligand: FMN 200 uM) and 0.013 µM (input ligand: none).

For “AAAAGUUAAGGAUAUACAGGGAGCCGCGGCGUCUGGCCGCAACAUGAGGAUCACCCAUGUAGAAGGUAGCCAAA [Maatmaso] (puzzle: Exclusion 2)”, the “apparent KD of MS2 coat protein” value is, setting by setting: under setting [3], 0.0615 µM; under setting [1], 0.0206 µM; under setting [4], 0.0305 µM.

“UUAAUGUCAGGAUAUGCUUAAUAUAUUUUAUUAUAAUAUAUACAUGAGGAUCACCCAUGUAGAAGGGACAUUAU [LRO-Excl2-04-Fireball XL5] (Eterna round: R97, puzzle: Exclusion 2)”: the “apparent KD of MS2 coat protein” value is, setting by setting: (input ligand: FMN 200 uM) 0.0264 µM; (input ligand: none) 0.0391 µM.

As to “AUGCCCUGAGGAUAUCUCAUCCCGCACAUGAGGAUCACCCAUGUUCUCCUCCGGGCUCCGAGAGAAGGCAGGCCUA [Armus7] (Eterna round: R97, puzzle: Exclusion 5)”, the “apparent KD of MS2 coat protein” value by setting is: (input ligand: FMN 200 uM) 0.0801 µM; (input ligand: none) 0.0535 µM.

As to “AAAAAACAAGGAUAUACGGAUGAAGAUUGUCUUAAUUUUUGACAUGAGGAUCACCCAUGUAGAAGGUGUUAAAA [JR_Exclusion2_Sub016] (puzzle: Exclusion 2)”, under setting [1], the “apparent KD of MS2 coat protein” value is 0.158 µM.

With “AAUUAACAAGCAGGAUCCUACAUGAGGAUCACCCAUGUGCUCGUCUUAUAAAGUACUAUCACGAAAGUGAUAGUACA [Mat - Sensor v3 - turn-off var 1 - Eli Mod - D74] (puzzle: Sensor v3, turn-off variant 1)”, the “apparent KD of MS2 coat protein” value amounted to 0.224 µM under setting [3], 0.566 µM under setting [1] and 0.197 µM under setting [4].

As to “CCGGUUCAUUAGGAUAUGCAGGUGAACGGUGCCGUAGAAGGAAUGACAUGAGGAUCACCCAUGUAGAGGAAGUG [Eternabot (L2) Solution 82] (Eterna round: R97, puzzle: Exclusion 6)”, the “apparent KD of MS2 coat protein” value is 0.0368 µM (input ligand: FMN 200 uM) and 0.0551 µM (input ligand: none).

“AACGACGGAGGAUAUACACCCUGGGACUCAUUAUCCCUUAGACAUGAGGAUCACCCAUGUAGAAGGCCGAACAC [EX2 B.3] (Eterna round: R97, puzzle: Exclusion 2)”: the “apparent KD of MS2 coat protein” value runs as follows: (input ligand: FMN 200 uM) 0.174 µM; (input ligand: none) 0.0298 µM.

“CAAAAGGUAGGAUAUACGAAAAAAAAGGGUAGAAAAAAAACACAUGAGGAUCACCCAUGUAGAAGGACCAAAAC [salish99_ex2_r3_042] (puzzle: Exclusion 2)”: the “apparent KD of MS2 coat protein” value under setting [3] was found to be 0.0957 µM, the “apparent KD of MS2 coat protein” value under setting [1] turned out to be 0.0226 µM and the “apparent KD of MS2 coat protein” value under setting [4] was found to be 0.0216 µM.

In the case of “UUAUAAAGUGUGAGGAUAUGCUGGUCCUUGGAUCAGCAGAAGGCACAUGAGGAUCACCCAUGUAAUAUAUUUUU [JL bmx4 3.08] (puzzle: Brourd's mod of Exclusion 4)”, the “apparent KD of MS2 coat protein” value under setting [1] was 0.0682 µM.

As for “AGUAUGUUAGGAUAUUCCAUUGCUGUCAGCUCGGCGUCACAGAAGAAGGGACAUGAGGAUCACCCAUGUUAGGC [Eternabot (L1) Solution 96] (Eterna round: R97, puzzle: Exclusion 4)”, the “apparent KD of MS2 coat protein” value by setting is: (input ligand: FMN 200 uM) 0.0573 µM; (input ligand: none) 0.0714 µM.

For the sequence “GGACAUAAAGUCAGGAUAUUAAGGCGAACAAGCGAUGAGAAGGGACAUGAGGAUCACCCAUGUGAUUCUCAUCA [Isedzaor] (Eterna round: R97, puzzle: Brourd's mod of Exclusion 4)”, the “apparent KD of MS2 coat protein” value turned out to be 0.0205 µM (input ligand: FMN 200 uM) and 0.014 µM (input ligand: none).

Regarding “UAUUAAUUAAUUAAUUAAUACAUGAGGAUCACCCAUGUAAUUUAAGAUCCUUAUACAAGCUUUGAUCUCGUAAUUAA [Stov1/4-A2] (Eterna round: R97, puzzle: Sensor, turn-off variant 1)”, the “apparent KD of MS2 coat protein” value came to 0.861 µM (input ligand: FMN 200 uM) and 0.696 µM (input ligand: none).

In the case of “ACUGGUGCAGGAUAUACAUUCGUGCUUCGGCACGUAAGAUCACAUGAGGAUCACCCAUGUAGAAGGGCACCAGU [E2/5-D2] (Eterna round: R97, puzzle: Exclusion 2)”, the “apparent KD of MS2 coat protein” value is, setting by setting: (input ligand: FMN 200 uM) 0.642 µM; (input ligand: none) 0.0816 µM.

For the sequence “UGAUCACAUGAGGAUCACCCAUGUCAGGAUAUCUACAUUGAAGCCUCGGCUUCAAUGUAGAGAAGGGACAUAAU [E1/3-B2] (Eterna round: R97, puzzle: Exclusion 1)”, the “apparent KD of MS2 coat protein” value amounted to 0.0332 µM (input ligand: FMN 200 uM) and 0.0711 µM (input ligand: none).

Regarding “AAUGUGUGAGGAUAUUAAUUGUAAUUGAAUAGAAUUAUGAUUGAGAAGGCACAUGAGGAUCACCCAUGUUCCAA [JR_Ex4_Sub082] (Eterna round: R97, puzzle: Exclusion 4)”, the “apparent KD of MS2 coat protein” value runs as follows: (input ligand: FMN 200 uM) 0.187 µM; (input ligand: none) 0.0312 µM.

Take “GACUGCUGAGGAUAUACAUGAGGAUCACCCAUGUGCUUCAGCUACGAGAGUAGCAUUGGUAGAAGGUAGUAGUC [LRO-Excl3-04] (puzzle: Exclusion 3)”: under setting [1], the “apparent KD of MS2 coat protein” value turned out to be 0.0111 µM.
